Measured values taken from patent US20250034594A1, “RNA-GUIDED GENOME RECOMBINEERING AT KILOBASE SCALE” (THE BOARD OF TRUSTEES OF THE LELAND STANFORD JUNIOR …, priority 2021, published 2025).

Experiments:
Assay type in all cases: cell-based
[1] = system: gene editing with Cas9 and dCas9; assay: Screen of 322 new SSAP proteins, activity across all experiments (Cas9 and dCas9, Table 5); parameters: scale not given here
Description: (§1) 322 new SSAP proteins were identified from sequence data, synthesized, and screened for activity with Cas9 and dCas9. Gene editing activities are shown below in Table 5, followed by amino acid sequences of the proteins.

gene editing with Cas9 = assay: Screen of 322 new SSAP proteins, gene editing activity with Cas9 (Table 5); parameters: Cas9 with SSAP activity: scale not given here
Description: as §1

gene editing with dCas9 = assay: Screen of 322 new SSAP proteins, gene editing activity with dCas9 (Table 5); parameters: dCas9 with SSAP activity: scale not given here
Description: as §1

Molecule | Activity across all experiments [1] | Cas9 with SSAP activity (gene editing with Cas9) | Cas9 with SSAP activity (normalized) (gene editing with Cas9) | dCas9 with SSAP activity (gene editing with dCas9) | dCas9 with SSAP activity (normalized) (gene editing with dCas9)
SSAP_225: SEQ ID NO: 394; Actinocrispum wychmicini (protein, listed as Actinocrispum wychmicini) SQTVTAAVAQRDNGAQALIAKYRTDFAQVLPSHLRPTTFVRLSQGLLRRNVKLAEAAERNPASFLAALLECARLGHDPGTDQFALVPFNDRKRNTVEVVGIEQYQGVIERMYRAGAVRSVKAEVVRAADPFEYAPDVMDRPGHKPNWFADRGELIGVYAYAEFFDGSTSRVVMMNRETVMAHKAKSRGATSEDSPWQAWEESMWLKTAVHELEKWVPTSSEDRRAARDGTADPAPVEVPRVADEVLDADLVEDDHADHPTATPTGDVR | −2.204 | −0.830 | −0.252 | −3.577 | −0.602
SSAP_273: SEQ ID NO: 442; Virgibacillus (multispecies) (protein, listed as Virgibacillus sp.) ATNDSVKNQIANKNQGSNQVNPNNLGLKQLLSTPTMRKKFDEVLDKKAPQFMSSLLNLYSNDSYLQKAEPMSVVTSALVAATLDLPIDKNLGYAWIVPYGGKAQFQLGYKGYIQLALRTGQYRNINVIEVYEGELKSFNRLTEEMELDFEQKQSDKVIGYTGYFELINGFRKTVYWSKEEIEKHKKRFSKSDFGWKKDWDAMAKKTVIRNMLNKWGILSIDMQKGIVEDNKDPIEKANEFDEQDIIEADFSEVNDDQEIDFSDAQ | 0.121 | −1.654 | −0.724 | 1.896 | 2.101
SSAP_290: SEQ ID NO: 459; Anaerovirgula multivorans (protein, Anaerovirgula multivorans) DAKHLTVVHQNLNTLLKAKADALPKGFNQTRFLQNCMTVLQDTKDIESVEPKSVARTMLKGAFLGLDFFNKECYAIVYNKKAGNSWIKTLEFQTDYKGEIKLAKKYSINTIKDIYAKLVREGDEFEEGVKDGKQVINFKPKPFNNNKILGAFAVAYYENGSMIYDTMSVEEIESVKKAYAKADKEGKYSKAWIESTGEMYKKTVLRRLCKLIELDFDTIEQKQAFDEGSGMEFKQEGKTDKPKSSLEAEFVEAEYEEVEESETSEVVEE | −2.336 | −1.166 | −0.249 | −3.506 | −0.681
SSAP_57: SEQ ID NO: 226; Pirellula sp. SH-Sr6A (protein, listed as Pirellula sp.) SEATKEAKPETAIAKKPNGIKDWLKSDALKTQIASVAPKHMAPERVMRIALNAVSRTPKLADCTPESFMRCLLDLSSWGLVPDGRHAHLIPYGTECTLVLDYKGLVTLAYRSGWVKKIHADVVFEGDIFVYSLGTVCQHIPWEFRDDANKPEHKGHFRAAYCVVTMADGIEKHEVMTASEIDAIKAKSRSGNSGPWKDHYTEMAKKTVYRRASKWLPLSPEQADAMERDDDRIIDAVSVAVTQRLSKAAMPLIGANETGDTE | −3.391 | −3.376 | −0.549 | −3.405 | −0.557
SSAP_320: SEQ ID NO: 489; Pseudoalteromonas sp. MQS005 (protein, listed as Pseudoalteromonas sp.) SISQQDYENLLYSKLYECESQYQAYLAEHNEKLNFNAELNYMYKAVMSGVGIEGGFPYTPLESIVESFLKAAKLGLSLDPSEQFCFLRSQYDHSTGLYHTELGLGYKGVLHLAYRSGKVKQIVSNVFYNKDNFQFNGPNSKVTHTMTVLSTSARGNLAGGYCQTELVDGSFIVTVMPPEEILAIEEQGKSVGNPAWLSAHVNQMREKTLILRHWKTLYPAIYSSSLLDSAQIFDDECEEFPFSSPSQGFSESQTIGSY | −2.305 | −1.322 | −0.932 | −3.288 | −0.449
SSAP_237: SEQ ID NO: 406; Paenibacillus popilliae ATCC 14706 (protein, listed as Paenibacillus popilliae) STSHLLTIHNNLEKLIDSKREAMPKSFNKTRFLQNCMTVLQDTKDVGKCDPQSVARTLLKGAFLGLDFFNKECYAITYGGSVQFQTDYKGEKKLAKKYSVRPVKDIYAKLVREGDEFIEEIKDGQPTVQFKPLPFNDSEIKGAFAVSLFEDDGLAYEVMSVAEIELTRKNYSKQPNGQAWVKSKGEMYKKTVLRRLCKNIELDFDTIEQAQAFEDSSDFEFNKEPKQAQQSPLNPQATVIDAEYEEVKEESDNETNQE | −5.493 | −7.473 |  | −3.513 | −0.512
SSAP_169: SEQ ID NO: 338; Streptomyces showdoensis (protein, listed as Streptomyces showdoensis) TSDARNAVARRAANVGQVEQAGEQPKPTMAQQIERMKPEIARALPKHMDADRIARIALTLIRKNPDLANCTTESFLGALMTCSQLGFEPGSPTQEAYIIPRKGQAEFQLGYQGMVTLFYQHPMASSVKVETVRENDYFEHEEGLEERLIHRPFADGPRGKAIAYYSVARLINGGRTFKVMYPAEIEERRQKLPSKNSPAWRDNYDEMAKKTVLRNHFKALPKSAELARALAHDGTVRTDWQPDAIDVPPEYLSEPQRPELEAGAQ | −2.669 | −1.842 | −1.968 | −3.497 | −0.528
SSAP_26: SEQ ID NO: 195 (protein) TVQLVQPRNSDEYDFDQTKLDLIKRTICKGATNDELQLFIHACKRTGLDPFMRQIFAVKRWDSSTKKEIMTIQTGIDGYRLIADRTGKYAPGKDTEFGYDNKGNIRWAKAYIKKMTPDGQWHEISAIAFWEEYVQTTREGKSTLFWLKKSHIMLSKCTEALALRKTFPAERSGIYTKEEMAQEFSPLEEHLVERIAASRNDQGRS | −1.354 | 0.692 | 1.723 | −3.399 | −0.852
SSAP_96: SEQ ID NO: 265; Plesiomonas shigelloides (protein, Plesiomonas shigelloides) SNQRPPIATADLQKAQSQPPAAKPEQNLINFINQPSMKSQIAAALPRHMAPERMIRIITTEIRKTPKLATCDVQSFIGAVVQCSQLGLEPGGGLGHAYLLPFGNGKAESGKPNVQLIIGYRGMIDLARRSGQIVSISSRIVREGDQFHYEYGLNETLKHVPGDNESAPITHVYAVAKLKDGGTQFEVMSFNEIEKIRGQSKAGNDGPWIKHWEEMAKKTVIRRLFKYLPVSIEMQRAVILDEKAEADIEQDNASIIGAEYSVVENAA | −1.869 | −0.322 | −1.581 | −3.416 | −1.995
SSAP_132: SEQ ID NO: 301; Enterocloster clostridioformis (protein, listed as Enterocloster clostridioformis) GIDVKHELEKRAAGQDKPVKLTRNMTIADMVKALEPEIKRALPAILTPERFTRMALSAVNNTPELANCTPMSFIAALMNAAQLGLEPNTPLGQAYLIPYKNKGTLECQFQLGYKGLIDLAYRTGQIQIIQAQAVREFDYFEYQYGLDSRLVHKPGNEERGQITFIYGLFKLSNGGYGFEVSNKAEMDAFAAKYSKSFGSKYSPWTEDYESMAKKTVIKRALKYAPVSSDFQKALSLDETVKSEIAVDMSEIRNDCIPADMGTEAA | −5.320 | −7.323 | −1.345 | −3.318 | −0.536
SSAP_95: SEQ ID NO: 264; Proteus terrae (protein, listed as Proteus terrae) SNPPLAQADLQKTQGTEVREKTKDQMLVEFINKPNMKAQLAAALPRHMAPDRMIRIVTTEIRKTPELANCDMQSFVGAVVQCSQLGLEPGNALGHAYILPFEKKRKQGNQWVTVRTDAQLIIGYRGMIDLARRSGQIVSISARTVRQGDSFHFEYGLNENLTHVPGENEDSPITHVYAVARLKDGGVQFEVMTHNQIEKVRTSSKAGQNGPWVSHWEEMAKKTVIRRLFKYLPVSIEMQKAVILDEKAEANVDQENSSVFEGEFEEVGQGA | −1.672 | −0.020 | −0.011 | −3.325 | −0.539
SSAP_267: SEQ ID NO: 436; Clostridium combesii (protein, listed as Clostridium combesii) ANTKAIVLQETANNLNTLLKAKVKALPKGFNETRFLQNCMTVLQDTRNIEKCNSVSVARTMLKGAFLGLDFFSKECYAIPYNDYKTGKCHLEFQTDYKGERKLMKQYSVRPIKDIYAKVVREGDKFEEIIEKGIPTINFRPKPFSNEKIIGVFAVVLFEDGGLLYETMSVEDVEKIKVGFAKRDKEGNYSKAWTATPEEMYKKTVIRRLRKSVELEFDSVEQQKTYEEASEFDVKRDEEVKEEASPFENVDFEEAEEGNTIEAKQE | −1.897 | −0.224 | −0.145 | −3.571 | −0.553
